Results on 5 substances are retold here after PMC32300.

A value given as a limit tells only on which side of the number the result lay.

Assay [1] addresses RPTPα-200-XFP (RPTPα-200-CFP and RPTPα-200-YFP). Put plainly: cross-linking.
Assay [2] concerns the target RPTPα-516-XFP (RPTPα-516-CFP and RPTPα-516-YFP). Kind of assay: FRET or BRET. Background: In BRET a luciferase serves as donor, and the signal depends on an acceptor being close.
For assay [3], the target named is RPTPα-P137C. Kind of assay: non-reducing SDS-PAGE.
Assay [4] concerns the target RPTPα-P137C. Kind of assay: cross-linking.
Assay [5] has as its target RPTPα-P137C-XFP (RPTPα-P137C-CFP and RPTPα-P137C-YFP). Put plainly: FRET or BRET.
The target of assay [6] is full length RPTPα-XFP (RPTPα-CFP and RPTPα-YFP). Kind of assay: FRET or BRET.
The target is the same in assay [7]. Kind of assay: cross-linking.

RPTPα-200-XFP (RPTPα-200-CFP and RPTPα-200-YFP), sequence (P18052 20-829): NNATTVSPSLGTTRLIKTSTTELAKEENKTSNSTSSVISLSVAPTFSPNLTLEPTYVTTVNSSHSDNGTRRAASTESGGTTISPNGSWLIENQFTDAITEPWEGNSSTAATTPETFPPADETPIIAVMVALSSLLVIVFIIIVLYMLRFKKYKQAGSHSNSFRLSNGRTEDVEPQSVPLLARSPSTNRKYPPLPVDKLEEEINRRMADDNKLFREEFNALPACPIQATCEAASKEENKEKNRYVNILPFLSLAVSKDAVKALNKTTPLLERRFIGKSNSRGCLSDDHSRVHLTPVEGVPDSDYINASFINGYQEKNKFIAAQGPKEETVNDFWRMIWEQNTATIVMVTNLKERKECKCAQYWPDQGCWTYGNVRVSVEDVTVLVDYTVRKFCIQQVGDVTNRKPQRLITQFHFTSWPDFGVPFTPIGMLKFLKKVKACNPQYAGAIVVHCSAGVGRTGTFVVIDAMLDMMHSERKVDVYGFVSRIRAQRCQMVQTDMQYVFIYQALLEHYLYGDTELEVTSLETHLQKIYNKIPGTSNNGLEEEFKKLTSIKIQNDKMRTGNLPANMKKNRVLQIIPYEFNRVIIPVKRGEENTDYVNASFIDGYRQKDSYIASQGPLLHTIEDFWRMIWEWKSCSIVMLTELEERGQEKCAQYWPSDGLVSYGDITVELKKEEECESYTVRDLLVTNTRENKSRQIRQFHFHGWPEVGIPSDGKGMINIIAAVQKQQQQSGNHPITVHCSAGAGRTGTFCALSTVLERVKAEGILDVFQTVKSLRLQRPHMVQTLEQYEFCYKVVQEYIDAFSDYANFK
RPTPα-516-XFP (RPTPα-516-CFP and RPTPα-516-YFP), sequence (P18052 20-829): as above

What is called stoichiometry N is the number of molecules, sites or subunits per partner or assembly. As to “RPTPα-200-XFP (RPTPα-200-CFP and RPTPα-200-YFP) (domain or fragment)”, the stoichiometry N in assay [1] was 2. As to “RPTPα-516-XFP (RPTPα-516-CFP and RPTPα-516-YFP) (domain or fragment)”, the F(440)/F(490) ratio in assay [2] was 0.46.

In the case of RPTPα-P137C (receptor), the percent in the dimeric form in assay [3] was above 80%. Moreover, the percent cross-linked by BS3 in assay [4] was below 10%.

Regarding “RPTPα-P137C-XFP (RPTPα-P137C-CFP and RPTPα-P137C-YFP) (receptor)”, the F(440)/F(490) ratio in assay [5] was 0.5. As for “full length RPTPα-XFP (RPTPα-CFP and RPTPα-YFP) (receptor)”, the CFP fluorescence lifetime (τφ) in assay [6] was determined as 2.2 ns. The same substance returned a stoichiometry N in assay [7] of 2.
